# Laboratory results taken from patent US20150258192A1, “COMPOSITIONS AND METHODS FOR PREVENTING OR TREATING CHRONIC LUNG ALLOGRAFT DYSFUNCTION (CLAD) AND IDIOPATHIC PULMONARY FIBROSIS (IPF)” (priority 2014, published 2015).
# No end group written: not given here.
# What was measured:
# Assay in all cases: Kinase Profiling Assay
# Format in all cases: biochemical
# Conditions in all cases: peptide 100 μM
# Abl(h) = Abl(h) (Homo sapiens, UniProt P00519)
# How it was run: (§1)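 Kinase inhibition by MK2 inhibitory peptides was profiled radiometrically, with substrate phosphorylation from labeled ATP read by scintillation after capture on a charged filter. Values are relative to 100% activity and measured in duplicate.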
# CHK2(h) = CHK2(h) (Homo sapiens, UniProt O96017)
# Chain of CHK2(h) (O96017 whole entry): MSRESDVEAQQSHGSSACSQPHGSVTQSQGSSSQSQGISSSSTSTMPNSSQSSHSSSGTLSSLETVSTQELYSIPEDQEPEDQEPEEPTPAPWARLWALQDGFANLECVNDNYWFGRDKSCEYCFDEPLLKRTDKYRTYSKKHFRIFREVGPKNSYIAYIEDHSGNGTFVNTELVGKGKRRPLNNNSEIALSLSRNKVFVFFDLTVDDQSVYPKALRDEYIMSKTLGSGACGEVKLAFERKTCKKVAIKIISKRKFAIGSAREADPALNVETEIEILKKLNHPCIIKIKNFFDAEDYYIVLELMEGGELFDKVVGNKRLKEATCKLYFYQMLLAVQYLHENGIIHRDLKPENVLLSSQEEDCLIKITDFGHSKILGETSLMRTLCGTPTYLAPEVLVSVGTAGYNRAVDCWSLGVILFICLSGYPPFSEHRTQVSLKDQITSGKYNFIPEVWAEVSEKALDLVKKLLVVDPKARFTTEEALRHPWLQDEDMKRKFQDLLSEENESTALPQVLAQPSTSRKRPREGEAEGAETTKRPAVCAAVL
# How it was run: as §1
# IR(h) = molecular target: T1, IR(h) (Homo sapiens, UniProt P06213)
# T1 construct: purchased Millipore
# How it was run: as §1
# Itk(h) = molecular target: T2, Itk(h) (Homo sapiens, UniProt Q08881)
# T2 construct: purchased Millipore
# T2 sequence (Q08881 1-620): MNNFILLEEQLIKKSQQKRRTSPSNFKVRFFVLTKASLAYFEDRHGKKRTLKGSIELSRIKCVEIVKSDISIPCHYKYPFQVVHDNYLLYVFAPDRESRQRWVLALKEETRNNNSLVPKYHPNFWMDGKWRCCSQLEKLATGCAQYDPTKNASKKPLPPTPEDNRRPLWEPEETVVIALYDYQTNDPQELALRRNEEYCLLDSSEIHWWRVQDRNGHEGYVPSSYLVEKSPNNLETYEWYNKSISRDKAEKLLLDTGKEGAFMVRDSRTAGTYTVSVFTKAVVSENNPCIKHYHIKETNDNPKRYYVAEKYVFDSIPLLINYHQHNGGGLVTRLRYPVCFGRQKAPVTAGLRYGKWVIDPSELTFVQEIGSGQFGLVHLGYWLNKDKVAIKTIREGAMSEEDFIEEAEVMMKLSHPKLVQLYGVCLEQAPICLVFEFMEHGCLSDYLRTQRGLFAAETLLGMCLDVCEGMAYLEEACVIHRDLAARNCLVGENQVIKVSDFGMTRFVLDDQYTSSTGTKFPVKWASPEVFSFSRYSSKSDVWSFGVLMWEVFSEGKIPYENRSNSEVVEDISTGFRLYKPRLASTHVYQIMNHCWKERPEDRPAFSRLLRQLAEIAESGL
# How it was run: as §1
# LOK(h) = molecular target: T3, LOK(h) (Homo sapiens, UniProt O94804)
# T3 construct: purchased Millipore
# T3 sequence (O94804 whole entry): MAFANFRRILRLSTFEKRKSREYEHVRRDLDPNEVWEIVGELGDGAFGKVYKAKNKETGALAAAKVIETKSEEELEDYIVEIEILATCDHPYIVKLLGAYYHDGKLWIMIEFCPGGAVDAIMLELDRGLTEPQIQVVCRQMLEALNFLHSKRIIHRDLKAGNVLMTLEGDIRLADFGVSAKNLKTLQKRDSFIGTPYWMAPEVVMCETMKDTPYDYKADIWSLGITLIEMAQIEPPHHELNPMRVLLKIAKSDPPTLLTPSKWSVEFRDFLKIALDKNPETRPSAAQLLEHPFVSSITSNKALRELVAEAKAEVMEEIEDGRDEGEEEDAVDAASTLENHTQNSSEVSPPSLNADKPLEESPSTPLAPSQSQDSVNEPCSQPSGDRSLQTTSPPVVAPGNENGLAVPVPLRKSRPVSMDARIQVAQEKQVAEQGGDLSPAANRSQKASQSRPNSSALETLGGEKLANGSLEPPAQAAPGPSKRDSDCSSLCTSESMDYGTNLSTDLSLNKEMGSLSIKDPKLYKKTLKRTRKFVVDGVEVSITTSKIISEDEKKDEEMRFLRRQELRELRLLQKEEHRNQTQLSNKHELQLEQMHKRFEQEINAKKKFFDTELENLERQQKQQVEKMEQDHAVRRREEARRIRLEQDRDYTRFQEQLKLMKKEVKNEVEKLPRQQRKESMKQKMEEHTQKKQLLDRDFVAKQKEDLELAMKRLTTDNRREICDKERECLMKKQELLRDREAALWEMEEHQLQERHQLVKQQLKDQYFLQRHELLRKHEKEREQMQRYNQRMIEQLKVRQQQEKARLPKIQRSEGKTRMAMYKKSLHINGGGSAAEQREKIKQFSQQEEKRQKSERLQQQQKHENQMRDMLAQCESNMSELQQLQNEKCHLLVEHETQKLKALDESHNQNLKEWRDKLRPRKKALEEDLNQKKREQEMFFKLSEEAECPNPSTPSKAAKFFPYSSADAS
# How it was run: as §1
# MAPK2(h) = molecular target: T4, MAPK2(h) (Homo sapiens, UniProt P28482)
# T4 construct: purchased Millipore
# T4 sequence (P28482 whole entry): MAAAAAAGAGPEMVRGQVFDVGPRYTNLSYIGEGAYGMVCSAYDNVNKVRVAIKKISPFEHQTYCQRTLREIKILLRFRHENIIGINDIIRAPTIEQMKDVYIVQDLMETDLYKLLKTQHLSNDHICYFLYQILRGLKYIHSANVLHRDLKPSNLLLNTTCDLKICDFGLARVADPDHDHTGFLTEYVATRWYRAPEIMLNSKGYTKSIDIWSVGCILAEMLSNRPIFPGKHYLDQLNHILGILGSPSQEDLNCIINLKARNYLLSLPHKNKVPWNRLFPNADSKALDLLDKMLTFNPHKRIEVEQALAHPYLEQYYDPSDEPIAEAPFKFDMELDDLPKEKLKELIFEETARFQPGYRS
# How it was run: as §1
# Met(D1246N)(h) = molecular target: T5, Met(D1246N)(h) (Homo sapiens, UniProt P08581, D1228N)
# T5 construct: purchased Millipore
# How it was run: as §1
# NLK(h) = molecular target: T6, NLK(h) (Homo sapiens, UniProt Q9UBE8)
# T6 construct: purchased Millipore
# T6 sequence (Q9UBE8 1-527): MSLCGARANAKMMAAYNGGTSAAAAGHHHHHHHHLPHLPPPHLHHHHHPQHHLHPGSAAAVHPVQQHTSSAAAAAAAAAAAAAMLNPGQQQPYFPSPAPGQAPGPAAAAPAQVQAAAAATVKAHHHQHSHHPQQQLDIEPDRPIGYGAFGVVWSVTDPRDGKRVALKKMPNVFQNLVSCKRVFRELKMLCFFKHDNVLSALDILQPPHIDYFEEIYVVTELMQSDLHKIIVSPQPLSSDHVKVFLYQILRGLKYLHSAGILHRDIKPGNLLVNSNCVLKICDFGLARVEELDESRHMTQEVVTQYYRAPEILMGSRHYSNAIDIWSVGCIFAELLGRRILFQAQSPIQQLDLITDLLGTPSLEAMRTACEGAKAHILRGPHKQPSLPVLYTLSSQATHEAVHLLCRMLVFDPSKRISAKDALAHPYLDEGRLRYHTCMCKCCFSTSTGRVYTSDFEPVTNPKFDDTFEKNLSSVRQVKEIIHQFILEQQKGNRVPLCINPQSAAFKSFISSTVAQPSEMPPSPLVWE
# How it was run: as §1
# TBK1(h) = molecular target: T7, TBK1(h) (Homo sapiens, UniProt Q9UHD2)
# T7 construct: purchased Millipore
# T7 sequence (Q9UHD2 1-729): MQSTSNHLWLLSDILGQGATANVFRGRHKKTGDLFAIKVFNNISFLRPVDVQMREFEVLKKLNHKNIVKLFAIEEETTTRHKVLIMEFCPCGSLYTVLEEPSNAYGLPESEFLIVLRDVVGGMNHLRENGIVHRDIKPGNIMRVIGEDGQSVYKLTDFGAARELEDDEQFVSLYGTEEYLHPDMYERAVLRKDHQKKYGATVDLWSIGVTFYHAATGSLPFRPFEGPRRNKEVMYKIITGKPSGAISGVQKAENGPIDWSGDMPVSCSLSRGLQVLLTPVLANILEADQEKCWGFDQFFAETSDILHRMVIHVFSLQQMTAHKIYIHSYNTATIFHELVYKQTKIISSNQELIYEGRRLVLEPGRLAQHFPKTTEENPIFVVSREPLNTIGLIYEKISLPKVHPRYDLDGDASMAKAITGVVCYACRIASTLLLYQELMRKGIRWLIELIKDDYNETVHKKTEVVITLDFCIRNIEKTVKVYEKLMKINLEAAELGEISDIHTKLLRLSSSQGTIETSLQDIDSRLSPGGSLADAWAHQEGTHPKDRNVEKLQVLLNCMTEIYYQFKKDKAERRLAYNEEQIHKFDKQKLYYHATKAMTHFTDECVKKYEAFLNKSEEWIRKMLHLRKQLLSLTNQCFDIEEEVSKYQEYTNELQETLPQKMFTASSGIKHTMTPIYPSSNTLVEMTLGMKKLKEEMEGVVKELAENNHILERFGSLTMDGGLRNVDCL
# How it was run: as §1
# mTOR/FKBP12(h) = molecular target: T8, mTOR/FKBP12(h) (Homo sapiens, UniProt P42345)
# T8 construct: purchased Millipore
# T8 sequence (P42345 1362-2549 limits assumed): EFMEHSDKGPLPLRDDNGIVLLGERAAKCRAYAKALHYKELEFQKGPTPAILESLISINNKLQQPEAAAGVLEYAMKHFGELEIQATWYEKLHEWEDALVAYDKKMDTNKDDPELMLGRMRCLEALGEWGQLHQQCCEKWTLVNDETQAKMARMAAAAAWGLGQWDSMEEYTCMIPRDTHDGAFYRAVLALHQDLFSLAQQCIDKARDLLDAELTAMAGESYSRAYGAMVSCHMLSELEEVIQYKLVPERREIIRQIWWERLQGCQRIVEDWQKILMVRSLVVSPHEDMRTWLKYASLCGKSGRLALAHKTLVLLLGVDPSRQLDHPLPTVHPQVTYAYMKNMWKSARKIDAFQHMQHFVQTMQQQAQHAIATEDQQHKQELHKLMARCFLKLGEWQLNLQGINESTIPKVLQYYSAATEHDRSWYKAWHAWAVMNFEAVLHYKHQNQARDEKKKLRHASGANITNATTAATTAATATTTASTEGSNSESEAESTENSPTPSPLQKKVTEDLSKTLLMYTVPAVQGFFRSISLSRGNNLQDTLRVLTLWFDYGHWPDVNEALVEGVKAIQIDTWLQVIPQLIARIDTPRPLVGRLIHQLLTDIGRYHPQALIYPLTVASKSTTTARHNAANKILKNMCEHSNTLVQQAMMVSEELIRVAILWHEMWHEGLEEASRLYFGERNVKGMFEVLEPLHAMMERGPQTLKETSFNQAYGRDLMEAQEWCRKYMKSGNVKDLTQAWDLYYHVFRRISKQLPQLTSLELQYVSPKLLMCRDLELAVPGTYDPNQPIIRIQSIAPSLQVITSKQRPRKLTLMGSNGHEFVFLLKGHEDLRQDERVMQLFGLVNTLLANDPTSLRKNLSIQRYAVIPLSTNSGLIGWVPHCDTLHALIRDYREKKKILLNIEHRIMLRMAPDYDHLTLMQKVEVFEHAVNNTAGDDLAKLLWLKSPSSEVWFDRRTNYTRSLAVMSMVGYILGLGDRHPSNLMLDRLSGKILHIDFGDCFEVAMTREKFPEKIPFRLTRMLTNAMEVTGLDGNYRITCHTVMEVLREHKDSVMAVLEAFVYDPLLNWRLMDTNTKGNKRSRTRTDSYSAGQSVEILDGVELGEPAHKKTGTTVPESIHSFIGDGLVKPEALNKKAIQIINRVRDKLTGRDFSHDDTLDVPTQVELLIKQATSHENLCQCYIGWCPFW
# How it was run: as §1
# PKCη(h) = PKCη(h) (Homo sapiens, UniProt P24723)
# Chain of PKCη(h) (P24723 whole entry): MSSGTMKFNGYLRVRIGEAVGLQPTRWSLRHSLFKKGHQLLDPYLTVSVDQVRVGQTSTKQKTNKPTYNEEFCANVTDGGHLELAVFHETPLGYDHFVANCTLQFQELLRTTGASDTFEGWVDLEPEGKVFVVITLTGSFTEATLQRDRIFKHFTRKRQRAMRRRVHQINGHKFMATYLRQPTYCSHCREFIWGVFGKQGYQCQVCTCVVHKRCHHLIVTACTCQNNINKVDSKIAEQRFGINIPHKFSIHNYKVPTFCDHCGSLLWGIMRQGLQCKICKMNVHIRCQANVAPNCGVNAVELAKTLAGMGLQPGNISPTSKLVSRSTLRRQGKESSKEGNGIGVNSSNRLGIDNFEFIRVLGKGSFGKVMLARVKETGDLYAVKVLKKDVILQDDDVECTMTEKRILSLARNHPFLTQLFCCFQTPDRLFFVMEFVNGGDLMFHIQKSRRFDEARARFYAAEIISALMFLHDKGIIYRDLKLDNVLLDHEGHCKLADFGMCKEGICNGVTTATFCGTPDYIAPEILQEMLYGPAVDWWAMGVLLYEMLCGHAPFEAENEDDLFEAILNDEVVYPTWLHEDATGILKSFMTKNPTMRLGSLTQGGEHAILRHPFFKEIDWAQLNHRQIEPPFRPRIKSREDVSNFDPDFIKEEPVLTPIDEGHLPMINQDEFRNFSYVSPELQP
# How it was run: as §1
# Chain of Abl(h) (P00519 whole entry): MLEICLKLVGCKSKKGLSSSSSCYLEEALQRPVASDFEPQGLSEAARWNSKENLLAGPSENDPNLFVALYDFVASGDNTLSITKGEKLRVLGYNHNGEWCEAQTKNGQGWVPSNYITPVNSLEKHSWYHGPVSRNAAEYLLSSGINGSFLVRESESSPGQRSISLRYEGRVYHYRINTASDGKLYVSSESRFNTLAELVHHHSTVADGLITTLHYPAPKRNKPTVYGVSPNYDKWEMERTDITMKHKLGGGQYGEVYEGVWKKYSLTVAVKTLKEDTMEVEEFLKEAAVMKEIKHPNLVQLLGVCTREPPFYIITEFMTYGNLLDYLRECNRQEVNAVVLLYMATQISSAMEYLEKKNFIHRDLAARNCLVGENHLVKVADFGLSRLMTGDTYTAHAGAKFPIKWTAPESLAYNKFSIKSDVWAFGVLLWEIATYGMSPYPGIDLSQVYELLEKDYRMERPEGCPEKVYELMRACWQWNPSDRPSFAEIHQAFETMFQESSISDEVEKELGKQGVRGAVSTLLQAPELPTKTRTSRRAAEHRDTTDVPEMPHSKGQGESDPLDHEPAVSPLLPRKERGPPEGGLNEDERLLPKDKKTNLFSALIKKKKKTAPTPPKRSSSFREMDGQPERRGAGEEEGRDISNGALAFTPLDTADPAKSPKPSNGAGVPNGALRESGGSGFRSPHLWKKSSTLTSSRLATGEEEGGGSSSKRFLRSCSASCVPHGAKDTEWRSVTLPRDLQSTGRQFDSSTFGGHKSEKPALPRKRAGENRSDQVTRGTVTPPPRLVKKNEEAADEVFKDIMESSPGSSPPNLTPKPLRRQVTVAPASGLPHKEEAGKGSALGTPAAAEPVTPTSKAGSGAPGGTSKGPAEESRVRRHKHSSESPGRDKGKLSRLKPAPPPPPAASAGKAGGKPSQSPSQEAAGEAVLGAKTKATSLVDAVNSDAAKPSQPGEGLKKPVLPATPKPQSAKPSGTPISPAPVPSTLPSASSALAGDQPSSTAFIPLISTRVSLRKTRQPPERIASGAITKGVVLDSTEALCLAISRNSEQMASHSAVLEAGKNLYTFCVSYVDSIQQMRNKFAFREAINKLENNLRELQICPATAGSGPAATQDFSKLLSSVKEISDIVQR
Sequence,% activity (Abl(h)),% activity (CHK2(h)),% activity (IR(h)),% activity (Itk(h)),% activity (LOK(h)),% activity (MAPK2(h)),% activity (Met(D1246N)(h)),% activity (NLK(h)),% activity (TBK1(h)),% activity (mTOR/FKBP12(h)),% activity (PKCη(h))
FAKLAARLYRKALARQLGVAA [MMI-0300],69%,66%,96%,77%,37%,98%,82%,87%,37%,145%,–
HRRIKAWLKKIKALARQLGVAA (Mammal) [MMI-0500],16%,13%,95%,7%,7%,60%,90%,19%,16%,140%,45%
KAFAKLAARLYRKALARQLGVAA [MMI-0400],84%,54%,85%,63%,18%,93%,31%,90%,39%,125%,98%
YARAAARQARAKALARQLGVAA [MMI-0100],–,–,–,99%,37%,–,–,100%,–,–,–
YARAAARQARAKALNRQLGVA (Mammal) [MMI-0200],–,–,90%,98%,67%,–,149%,–,98%,118%,101%
